The DeepSol protein solubility set

Assay: soluble on expression in E. coli; label from the status in PepcDB or PDB records

Row | Sequence | soluble on expression in E. coli
1 | MSLINLKHSFGISRSSHDFYDIVYFYIVDGEIIGRGEAAPSKRYNETTEKIISVLNKGILVPENFEDADQLWEYIKPQLEGISALEAAANMAIWDWRGQKENKAVHDILGFNVSKLPATSYTISIGDMSELDEKIELSNPYSIIKVKLGTPNDDKEIISQIRQRTDKLIRVDANEGWSLDNAKEMSYWLADRNVEFIEQPFKAKMLNETRSLREFSPLPLFADENSLVSSDIPNIVDCFDGINIKLMKCGGLDEALKMIEIAKHFDMQIMLEGHHHHHH | not soluble
2 | MSLIPDVSQALAWLEKHPQALKGIQRGLERETLRVNADGTLATTGHPEALGSALTHKWITTDFAEALLEFITPVDGDIQHMLTFMRDLHRYTARKLGDERMWPLSMPCYIAEGQDIELAQYGTSNTGRFKTLYREGLKNRYGALMQTISGVHYNFSLPMAFWQAKCGVTEGGSGKRKISAGYFRLIRNYYRFGWVIPYLFGASPAICSSFLQGKPTTLPFEKTDCGMYYLPYATSLRLSDLGYTNKSQSNLGITFNDLHEYVAGLKRAIKTPSEEYARIGVEKDGKRLQINSNVLQIENELYAPIRPKRVTRSGESPSDALLRGGIEYIEVRSLDINPFSPIGVDEQQVRFLDLFMVWCVLADAPEMSSDELLCTRTNWNRVILERRKPGLTLGIGCETAQFPLPKVGKDLFRDLKRVAQTLDSIHGGEEYQKVCDELVACFDNPELTFSARILRSMIDEGIGGTGKAFGEAYRNLLREEPLEILQEEEFIAERDASVRRQQEIEAADTEPFAAWLAKHAEGGSHHHHHH | soluble
3 | MSLIQDNEISSSTKTRIKALKFFSRKMLSELNFGGYRSIFKGLGLEFHEFRPYEDSDDARFIDWNVSSKADSIFSKVFKEDRGMNLHLLVDNSLSMSLGDKVNKKDVQDLLVSIFAHMAFFNNDKIGVTFFSSGTDKFIPSSKGHSHLGLILSETINRNLKPGSSLAYIFKNTAEYYKKRSLVIIISDFKANAYFKSLNVLSKRHNVIAIRISDFFDENFPKIGTLICEDIETGENFLVSGFSKSTLSGYKNYWTLDKIKWKKECIKKNISFIEIDTKEDVFKKLKILLKKGQEGHHHHHH | not soluble
4 | MSLIRDRTEPVMSAKLPPVEPVSPTNPRSSASPGSPDRSGLPVVVSVVGLVHTPGLVTLAPGARIADALQAAGGAVDGADTVGLNMARQLGDGEQIVVGLAPPSGQPRVLGSSVGAGTPGPAGTSGTATTGPKTAPKTAEVLDLNTATVEQLDALPGIGPVTAAAIVAWRQRNGRFTSVDQLADVDGIGPARLDKRRNLVRVEGHHHHHH | soluble
5 | MSLISIVVLYYSRHGSTQALARQIARGVESVEGCQALLRTVAELDGTASNSDPYLSLDELKQCDGLALGSPVWFGNMAAPLKHFWDQTTPLWLSGALIDKPACVFTSSSTLHGGQETTQQSMMLPLLHHGMLILGIPYSEPALHTTQSGGTPYEGHHHHHH | not soluble
6 | MSLISIVVLYYSRHGSTQALARQIARGVESVEGCQALLRTVAELDGTASNSDPYLSLDELKQCDGLALGSPVWFGNMAAPLKHFWDQTTPLWLSGALIDKPACVFTSSSTLHGGQETTQQSMMLPLLHHGMLILGIPYSEPALHTTQSGGTPYGASHVHQQKTLSSEEAELARQLGKRLAHVAKQLKGEGGSHHHHHH | soluble
7 | MSLITACPRPCAWRSYALGLGLLPLAAQAEFLADSSAHLDLRNFYQLRDYRQHDAPQSQAGNWSQGFVLRLQSGFTGGPLGFGLDATGLLGVKLDSGRGRSNDGTLPFGANSKEPVDDYSHLGLTAKLRYSQTQLQVGILMPQLPVAFRDDVRLLPQTFDGALLTSSEIEGLTLTAGQLWKSRTRESAGSDDMYIMGRDKAHASDEFNLAGATYAFTPRLSASYYYGQLKDIYRQHYLGLLHTLPLGEGLSLRSDLRYFDSGEDGAAISGPVDNRNLNAMLTLRAGAHAFGIGVQKMIGNDAFPVLNGYTTPYVANLMAYQTFTRPQEKSWQLRYDYDFAGLGLPGLNLMTRYVQGRDIDRGAGRADDSEWERNTDLSYVIQSGPLKSVALKWRNITYRSRYGADLDENRFIVNYTLKLWEGHHHHHH | soluble
8 | MSLIVTLPEPTGPYEIGVTNFHWVDPDREEVEGVNGNRELMVRIWYPAELTEGGLKAPYAFDPSYTELVSKELPYYYKALLYSVIQTETHSFANVPVADHGAPYPVLILSPGYGNSNFMYTSQAETLASHGYIVCSIEHTYYTGLPTLFPDGRIVYEQIDLEDGRDLDEEITVWVDDVQFVLDQLQKWNESDPQNLLNGRLDMDRVGMLGHSFGGATTAQVMHQDPRIRAGVNMDGFLFGSLIEEGLDYPFMYMSGVEEVSMEGPDGKKVEEAELPEEFREFIADDKRRKEGALKNNGLYVVIENAEHESFSDWMLYSPLLLDRDLPMLDQINKTLLDFFDEHLKEGHHHHHH | soluble
9 | MSLIYPEKNREVLVQLMNQSKNASLIQAWIDDGNTTIAPEKIQVTFILTPPVSRVAGGSGQQLKIRKMPNNLPHNKESLFYLNVLDIPPNNPQNAGKNKIKLALQNRIKLLWRPSGIAPVDKKSLSQLNIKKKNNAISINNETANWITVTTIKAQNVKVNNESILLPPFSHNDITLKNNHASEYELTVVDDYGNNIHSKIAAREGHHHHHH | not soluble
10 | MSLKAIKNGTILTGTGETIKQGTLLIQDGKVLEVGQRVDTPANAKLIDATGKYVTPGLIDVHTHIGVFSEGLGRTGHDFNETTAAATPYIRAIDGIYPFDQGFEDARQSGVTTVQIMPGSANVIGGEMVTVKTAGTVVDEMIVRAPSGMKAAFGENPKNVHGGKGKLPATRMGVAALFRQQLYQAQDYLKRFEKGELEKRDLGMEQLAKVLRKEIPLRVHAHRADDIATVLRMVDEFDLEATIEHCTEGHLIADHIAKYNVKVSVGPTMTSRTKQELVNKGWHTLIELEKHGIPFSITTDHPVVTINHLVTSAIQAVKAGLSEQSAFQAITLRAAEHIGVEQQVGSLEKGKDGDFVIWSDHPFTATAQVEATYINGKCVTGSHCEGHHHHHH | soluble
11 | MSLKAIWHGGFIYTMLEEGDRTEAVYVEDGVIKGTGSYERLKEKYGSPETEEISLNGAVMFPGFVDSHLHLIGHGEKQLQLDLSALTSKDSILQAAKERERQLPKNDWLIGEGWNENQFETPDYLTKHDLDRLFPDRPVLLKRICRHAIAVNSAALQAAGISRNTPDPDGGVIVKDANGEPTGLLFDKAQDLILKAVPPVSQHYVDEALTAAIKDCWTKGLTGGHSEDLSYYGDVSVPMKAYEKAAAGGKYPFRCHLLVHHEAVDRWEQLEKLSGPYVEFGAMKIFADGALGGRTALLKEPYQDDPSTNGVQVHDDETLGRLIRKAREKGMEVAVHAIGDLAFEKVLNAIEKHPPKNGRHDRLIHAQVLDNELIERAARMPIALDLQPHFVASDFPWVIDRLGKDRMKTAFAWKTLISKGILCAGGSDAPIEPVDPLLGIQSAVLRKSSHEQNGPSYNESECLPVYEAIKLYTEGSAGIIYKEKSRGKIAEGYDADFTVLSGDPFAIDPAQLHLLEIKKTVINGQIVYEKSEGHHHHHH | soluble
12 | MSLKAVIGISASEVTIQSGPFMGEPRTYVNAAYVDSVLKNGGIPLVIPFTAGGEEMAFKQLDLVDGLILSGGHDLNPHLYGEEIDQKSGETWPDRDAFDMALLKRAEETGKPVLGICRGAQIINVAHGGSMWQDLSLRPGNTLKHMQAIRPDVGTHVVKIKSGTTLKKIMGKSSLMTNSFHHQLIKEVAPDLTESASASDGVTEALESTDGKVIAVQWHPEEMHANPAPEAAIMNRLFKYLIDKAEEEKEGHHHHHH | soluble
13 | MSLKAYKTDGTHFRAITRQTLLGADEDERALGHQTRYFEIAPGGYSSLERHQHTHTVMILRGQGELILGDALHRIGRHDCIYIAPQTFHQFHASGDEPLGFLCIVDRERDRPREGHHHHHH | not soluble
14 | MSLKEAIVERIVNKLNENQKEKIGVELPSGKRIPEFPVSHLIRFKTWKSLDYVLKDPEMGFGEGYMNGDIEVEGDLEEVIKRGMTLFKDTRKFEKLFGILRHVPLFRTIRDERNVKHHYDLGNDFYRLWLDKSMTYSCAFFEDPSMSIDEAQSLKRRIIYEKLQLKEGDTLLDIGCGWGSIILESAELYNVKSVGITLSDNQYEYVKEEIKKRGLQDKVEVYKLHYVDLPKLGRKFNKVVSVGMFEHVGKENYETFFNTVYKVMEEGGLFLLHTIGKLHPDTQSRWIRKYIFPGGYLPSISEIVESFRDMDFTLIDFDNWRMHYYWTLKKWKERFYENLDKIRNMFDDRFIRMWELYLTASAVSFLIGSNYVFQILLSKGVKDDYPVIKREFSGVLFKEGHHHHHH | not soluble
15 | MSLKFIVIKIGGSTLSDMHPSIINNIKHLRSNNIYPIIVHGGGPFINEALSNQQIEPHFVNGLRVTDKATMTITKHTLIADVNTALVAQFNQHQCSAIGLCGLDAQLFEITSFDQQYGYVGVPTALNKDALQYLCTKFVPIINSIGFNNHDGEFYNINADTLAYFIASSLKAPIYVLSNIAGVLINDVVIPQLPLVDIHQYIEHGDIYGGMIPKVLDAKNAIENGCPKVIIASGNKPNIIESIYNNDFVGTTILNSEGHHHHHH | soluble
16 | MSLKHLGQTRSALHGSHAVITPETFVRTALAEWPGSAIVLHIAPVVGLGARFVQFTAEMPAGAQATESVYQRFAFVLSGEVDVAVGGETRTLREYDYVYLPAGEKHMLTAKTDARVSVFEKPYQTVEGVQAPGVYWGNERENPGYPFEGDDHLIARKLLPDEPAFDFMVSTMSFAPGASLPYAEVHYMEHGLLMLEGEGLYKLEENYYPVTAGDIIWMGAHCPQWYGALGRNWSKYLLYKDMNRHPLEGGSHHHHHH | soluble
17 | MSLKIERLNIIVTCPGRNFVTVKIVTDEGVHGLGDATLNGRELAVRAYLEDHVFPCLIGRDPRDIEDIWQYLYRGAYWRRGPVTMTAIAAIDMALWDIKSKLAGMPVYQLLGGKSREGLMVYGHANGRDHDEAIDAAHRHIAAGYRAIRVQSGVPGLAKVYGVGKTAGAYEPAEKGLPPEEPWDTALYLRHTPELFRKVRDALGDAPHLLHDAHHRLTPIEAARLGRDLEPYRLFWLEDATPAENQDAFRLIRSHTTTTLAVGEVFNSIWDCKDLIRDQLIDYIRATIVHAGGITHVRRIADYAAMYQVRTGFHGATDLSPVCMAAAVNFGLWAPNFGIQELMPHTALTDEVFPHNYRFDDGYLVMDDVPGLGVDIDETLAANYPYERAYLPVARLRDGSMWNWEGHHHHHH | not soluble
18 | MSLKIFPSSSIKKLDAYTIEHEPIASIDLMERAAQALTKAITERWDITTPVTVFAGPGNNGGDALAVARMLAEKEYKVEAYLFNPKGELSADCQTNKELVEMMDNVKFSEVSTQFVPPTLTMDHLVVDGLFGSGLNKPLSGGFAAVVKYINASPATVVAIDIPSGLMGEENTFNVKANIIRAQLTLSLQLPKLAFLFAENSEFVGEWKLLDINLSREAIEETESNYALLEAEEIHALIKPRNTFSHKGNFGHALLIAGSYGMAGASILAARACMRSGVGLLTVHAPIRNNDILQISVPEAIIESDASDTYFACPTDTDDYQAVGIGPGIGRSEETEAALLEQLSGCQTPLVLDADALNILANHRHALTTLPKGSILTPHPKELERMVGKCQNSYERLMKACELARTAKVHIILKGAYSAIITPSGKCYFNSTGNPGMATAGSGDVLTGVVLALLAQGYPAEEAAKIGTYVHGLAGDFARKKQGVISMTAGDIISNLPLAWRLVSEGHHHHHH | soluble
19 | MSLKIGKIVSVNFNQFRVKISSEIRGNSVNLAGTVYYFGNIGSYLKTTNSVGEQLICEVMSIFDSDTKLDSAAYDFDSNRELLLKPIGTITRDDRFNLGVGIFPGIYSEVNVVTFEDMELILQTGKDKELSKAIHQSFFLGESKNLINYPIDISINSFFNIHSAVLGNSGSGKSNTIAHIIQEIHKKKNNSAIGSRILIFDVNGEYKNAFTGHEISPYIKVRLLKPNIEATEDGVEPFYLPHFLMNIDEWSSFLMATDATQRPFWDKVLQESYKFYMIATHEGDDRQKLINYLRFKICNLIHILQAQGDSDTAIITTAQGILYGILTLIEMDDDLQRACQQEGVLQDLHDLNASEGHHHHHH | not soluble
